These results are taken from PMC3818982 (Microbial Cell Factories, 2013).

The test deals with T1, human epidermal growth factor receptor (EGFR) (Homo sapiens (A431 and FaDu cells), UniProt P00533).
T1 construct: human EGFR, full-length receptor presented by living A431 (epidermoid carcinoma) and FaDu (squamous carcinoma) cells; also called human EGFR; source: endogenous, on living A431 and FaDu cells
Briefly: radioligand binding; ^99mTc-labelled sdAb on A431 and FaDu cells, 1 h on ice, with or without pre-blocking by a 40-fold excess of unlabeled Cetuximab; read-out % ID/mg protein. Particulars: one partner purified.

B1: EGFR-specific single-domain antibody EG2 (VHH)
VHH: QVKLEESGGGLVQAGDSLRVSCAASGRDFSDYVMGWFRQAPGKEREFVAAISRNGLTTRYADSVKGRFTISRDNDKNMVYLQMNSLKPEDTAVYYCAVNSAGTYVSPRSREYDYWGQGTQVTVSS
notes: an initial methionine was added by the NcoI site; Camelid-derived sdAb; Intradomain disulfide bridge formed in about 98% of the purified protein; also called sdAb EG2; ^99mTc-EG2; source: E. coli SHuffle T7 Express, cytoplasm (pET-28b:EG2), purified (Ni-IDA IMAC); not shown: His6, C-terminal, kept
Regarding B1, the binding result was “binds”.
